Experimental data published in patent US20140322736.

Columns and labels:
[1] = tested on: mouse mutant recombinant prethrombin-2
[2] = tested on: human mutant recombinant prethrombin-2

| Substance | protease activity (fluorescence of the cleaved fluorogenic substrate (p-tosyl-Gly-Pro-Arg)2-rhodamine 110 over time) [1] | protease activity (fluorescence of the cleaved fluorogenic substrate (p-tosyl-Gly-Pro-Arg)2-rhodamine 110 over time) [2] | cleavage of the proenzyme [1] |
| --- | --- | --- | --- |
| wild type human α-thrombin (Sigma Aldrich) | in the presence of WT human α-thrombin, the protease activity increased considerably with time (FIG. 4, curves a, b), compared to the samples where only WT α-thrombin was added | in the presence of WT human α-thrombin, the protease activity increased considerably with time (FIG. 4, curves a, b), compared to the samples where only WT α-thrombin was added |  |
| α-thrombin immobilized on agarose (Thrombin CleanCleave Kit, Sigma-Aldrich) |  |  | Mouse mutant prethrombin-2 was cleaved using Thrombin CleanCleave™ Kit |
